Entries after “also recorded” stand apart in the source; their conditions may differ.
B1: PSA: small pea (Pisum sativum) lectin (protein, UniProt P02867 31-217; P02867 218-275, looked up)
Lectin beta chain: TETTSFLITKFSPDQQNLIFQGDGYTTKEKLTLTKAVKNTVGRALYSSPIHIWDRETGNVANFVTSFTFVINAPNSYNVADGFTFFIAPVDTKPQTGGGYLGVFNSAEYDKTTQTVAVEFDTFYNAAWDPSNRDRHIGIDVNSIKSVNTKSWKLQNGEEANVVIAFNAATNVLTVSLTYPNSLEEEN
Lectin alpha chain: VTSYTLSDVVSLKDVVPEWVRIGFSATTGAEYAAHEVLSWSFHSELSGTSSSKQAADA
B2: PNA: peanut (Arachis hypogaea) lectin (protein, UniProt P02872 24-273, looked up)
Galactose-binding lectin: AETVSFNFNSFSEGNPAINFQGDVTVLSNGNIQLTNLNKVNSVGRVLYAMPVRIWSSATGNVASFLTSFSFEMKDIKDYDPADGIIFFIAPEDTQIPAGSIGGGTLGVSDTKGAGHFVGVEFDTYSNSEYNDPPTDHVGIDVNSVDSVKTVPWNSVSGAVVKVTVIYDSSTKTLSVAVTNDNGDITTIAQVVDLKAKLPERVKFGFSASGSLGGRQIHLIRSWSFTSTLITTTRRSIDNNEKKIMNMASA

Legend:
bovine immune cells = assay: Leukocyte mitogenic response (BrdU-based ELISA, stimulation index); type: cell-based; conditions: purified lectin at mitogen concentration (5-40 μg/mL), day 4
Chicken PBMC = assay: Immune cell proliferation, tetrazolium colorimetric reading (Stimulation Index)
feline immune cells = assay: Leukocyte mitogenic response (BrdU-based ELISA, stimulation index); type: cell-based; conditions: purified lectin at mitogen concentration (5-40 μg/mL), day 4
Calf PBMC = assay: Immune cell proliferation, tetrazolium colorimetric reading (Stimulation Index)
Swine PBMC = assay: as above
equine immune cells = assay: Leukocyte mitogenic response (BrdU-based ELISA, stimulation index); type: cell-based; conditions: purified lectin at mitogen concentration (5-40 μg/mL), day 4
human immune cells = assay: as above; type: cell-based; conditions: purified lectin at mitogen concentration (5-40 μg/mL), day 4
salmon immune cells = assay: as above; type: cell-based; conditions: purified lectin at mitogen concentration (5-40 μg/mL), day 4
Trout HK Cells = assay: Immune cell proliferation, tetrazolium colorimetric reading (Stimulation Index); type: cell-based
swine immune cells = assay: Leukocyte mitogenic response (BrdU-based ELISA, stimulation index); type: cell-based; conditions: purified lectin at mitogen concentration (5-40 μg/mL), day 4
Excerpt: (§1) Lymphocytes are a representative immune system prototypic cell that may be used in in vitro assays for immunological effects of lectins, saponins and other components of natural plant or animal products. Exemplary lymphocytes for representative target species may be obtained and used in the Examples disclosed herein. The effects of various compositions on lymphocyte proliferation is examined using a standard tetrazolium based colorimetric assay (MTT). An Alamar blue-based colorimetric assay gave equivalent results to [^3H]-thymidine incorporation assay. The MTT colorimetric assay has also been used in lymphocyte proliferation assays using chicken splenocytes. These and other known assays may be utilized in the methods disclosed herein.
(§2) In one non-limiting example, cells from anterior fish kidney are obtained by forcing the aseptically removed tissue through a 100 μm cell strainer into L-15 medium supplemented with 2% fetal bovine serum (FBS), 100 U mL^−1 penicillin, 100 μg mL^−1 streptomycin, and 10 U mL^−1 sodium heparin (Processing medium, PM). The single-cell suspension is removed from the settled tissue fragments and cells are pelleted by centrifugation at 500×g for 10 min at 4° C. […]
(§3) The number of viable kidney or blood leukocytes isolated from each fish is determined by trypan blue exclusion (0.1% trypan blue in PM), and the cells are pelleted as described above.
(§4) Mitogen concentrations used to stimulate the isolated leukocytes are as follows: 10 μg mL^−1 SBA, 10 μg mL^−1 PHA-E or PHA-L, 5 μg mL^−1 LBL, 20 μg mL^−1 LCA or LOA, 10 μg mL^−1 ConA, 40 ug mL^−1 PSA and 5 μg mL^−1 PNA. […] The mitogenic response is measured on the fourth day of incubation post-mitogen stimulation using a BrdU-based ELISA at room temperature as described (Gauthier, D. T. 2003). Stimulation index (SI) values are calculated as the replicate mean optical density for a given set of mitogen-treated leukocytes divided by the replicate mean optical density of the associated mitogen free (control) leukocytes. […]

Sheep PBMC = assay: Immune cell proliferation, tetrazolium colorimetric reading (Stimulation Index)
Feline PBMC = assay: as above
Mouse Splenocytes = assay: as above; type: cell-based, BALB/c mice
canine immune cells = assay: Leukocyte mitogenic response (BrdU-based ELISA, stimulation index); type: cell-based; conditions: purified lectin at mitogen concentration (5-40 μg/mL), day 4
trout immune cells = assay: as above; type: cell-based; conditions: purified lectin at mitogen concentration (5-40 μg/mL), day 4
Excerpt: as §1, §2, §3, §4

shrimp immune cells = assay: as above; type: cell-based; conditions: purified lectin at mitogen concentration (5-40 μg/mL), day 4

Row | Molecule | Immunomodulatory effect (stimulation index class) (bovine immune cells) | lowest concentration of lectins required for stimulation response above background (Chicken PBMC) | Immunomodulatory effect (stimulation index class) (feline immune cells) | lowest concentration of lectins required for stimulation response above background (Calf PBMC) [µg/mL] | lowest concentration of lectins required for stimulation response above background (Swine PBMC) [µg/mL] | Immunomodulatory effect (stimulation index class) (equine immune cells) | Immunomodulatory effect (stimulation index class) (human immune cells) | Immunomodulatory effect (stimulation index class) (salmon immune cells) | lowest concentration of lectins required for stimulation response above background (Trout HK Cells) | Immunomodulatory effect (stimulation index class) (swine immune cells) | lowest concentration of lectins required for stimulation response above background (Sheep PBMC) [µg/mL] | lowest concentration of lectins required for stimulation response above background (Feline PBMC) [μg/ml ug/ml] | lowest concentration of lectins required for stimulation response above background (Mouse Splenocytes) | Immunomodulatory effect (stimulation index class) (canine immune cells) | Immunomodulatory effect (stimulation index class) (trout immune cells) | Immunomodulatory effect (stimulation index class) (shrimp immune cells)
1 | SBA: Soybean (Glycine max) Lectin | + (between 1 and 4.9 is assigned a value of + (weak mitogen)) | Negative | + (between 1 and 4.9 is assigned a value of + (weak mitogen)) | 50 | 50 | −− (<1 is assigned a value of −− (anti-mitogenic)) | ++ (between 5 and 9.9 is assigned a value of ++ (moderate mitogen)) | +++ (≧10 is assigned a value of +++ (strong mitogen)) | refractory; also recorded: Negative | −− (<1 is assigned a value of −− (anti-mitogenic)) | 50 | 1 | Negative | – | – | –
2 | B1 | +++ (≧10 is assigned a value of +++ (strong mitogen)) | – | −− (<1 is assigned a value of −− (anti-mitogenic)) | – | – | + (between 1 and 4.9 is assigned a value of + (weak mitogen)) | ++ (between 5 and 9.9 is assigned a value of ++ (moderate mitogen)) | −− (<1 is assigned a value of −− (anti-mitogenic)) | – | – | – | – | – | + (between 1 and 4.9 is assigned a value of + (weak mitogen)) | +++ (≧10 is assigned a value of +++ (strong mitogen)) | +++ (≧10 is assigned a value of +++ (strong mitogen))
3 | B2 | + (between 1 and 4.9 is assigned a value of + (weak mitogen)) | – | +++ (≧10 is assigned a value of +++ (strong mitogen)) | – | – | ++ (between 5 and 9.9 is assigned a value of ++ (moderate mitogen)) | + (between 1 and 4.9 is assigned a value of + (weak mitogen)) | +++ (≧10 is assigned a value of +++ (strong mitogen)) | – | – | – | – | – | ++ (between 5 and 9.9 is assigned a value of ++ (moderate mitogen)) | −− (<1 is assigned a value of −− (anti-mitogenic)) | −− (<1 is assigned a value of −− (anti-mitogenic))

Source: patent US20080226682A1, “Immunoactive Compositions for Improved Oral Delivery of Vaccines and Therapeutic Agents” (PerOs Systems Technologies, Inc., priority 2007, published 2008)
